This note sets out measurements from the RNAGym collection of RNA variant scans (doi:10.7554/elife.90254).

To fix the notation:
B1: LINE1-mini (parent)
chain: GGCAGAGCUCAACACAGCGUGGCAAAGUGGCUGUGGCUAGACUGCC

The data set covers variants of B1. Briefly: self-cleavage, relative activity (ratio to wild type); higher = more cleavage; in vitro, sequencing; the parent is a self-cleaving ribozyme.
For the variant GGCAGAGCUCAACACAGUGUGACAAAGUGGCUGUGGCUAGACUGCC, the self-cleavage stood at 1.76. GGCAGAGCUCAACACAGUGUGCCAAAGUGGCUGUGGCUAGACUGCC: the self-cleavage is 1.47. To GGCAGAGCUCAACACAGUGUGGCAAAGUGGCUGUGGCUAGAGUGCC belongs 0.05; to GGCAGAGCUCAACACAGUGUGGCAAAGUGGCUGUGGCUAGAUUGCC, 0.17. Consider GGCAGAGCUCAACACAGUGUGGCAAAGUGGCUGUGGCUAGAAUGCC, for which the self-cleavage worked out at 0.09. Consider GGCAGAGCUCAACACAGUGUGGCAAAGUGGCUGUGGCUAAACUGCC, for which the self-cleavage was 0.1.

Regarding GGCAGAGCUCAACACAGUGUGGCAAAGUGGCUGUGGCUAUACUGCC, the self-cleavage was determined as 0.12.

Take GGCAGAGCUCAACACAGUGUGGCAAAGUGGCUGUGGCUACACUGCC: the self-cleavage came to 0.04. Take GGCAGAGCUCAACACAGUGUGGCAAACUGGCUGUGGCUAGACUGCC: the self-cleavage was 0.55.

For the variant GGCAGAGCUCAACACAGUGUGGCAAAUUGGCUGUGGCUAGACUGCC, the self-cleavage turned out to be 1.63.

With GGCAGAGCUCAACACAGUGUGGCAAAAUGGCUGUGGCUAGACUGCC, the self-cleavage amounted to 0.84. As to GGCAGAGCUCAACACAGUGUGGCUAAGUGGCUGUGGCUAGACUGCC, the self-cleavage was 0.97. Take GGCAGAGCUCAACACAGUGUGGCCAAGUGGCUGUGGCUAGACUGCC: the self-cleavage was determined as 0.39. On to GGCAGAGCUCAACACAGUGUGGCGAAGUGGCUGUGGCUAGACUGCC, for which the self-cleavage stood at 1.01.

Turning to GGCAGAGCUCAACACAGCAUGGCAGAGUGGCUGUGGCUAGACUGCC, the self-cleavage came out at 0.58. To GGCAGAGCUCAACACAGCAUGGCACAGUGGCUGUGGCUAGACUGCC belongs 1.21; to GGCAGAGCUCAACACAGCAUGGCAUAGUGGCUGUGGCUAGACUGCC, 1.66. Consider GGCAGAGCUCAACACAGUGUGGCAAAGUGGCUGUGGCUUGACUGCC, for which the self-cleavage worked out at 0.78. Take GGCAGAGCUCAACACAGUGUGGCAAAGUGGCUGUGGCUCGACUGCC: the self-cleavage came out at 0.16. Turning to GGCAGAGCUCAACACAGUGUGGCAAAGUGGCUGUGGCUGGACUGCC, the self-cleavage came out at 0.08. To GGCAGAGCUCAACACAGUGUGGCAAAGUGGCUAUGGCUAGACUGCC belongs 0.09. Consider GGCAGAGCUCAACACAGUGUGGCAAAGUGGCUUUGGCUAGACUGCC, for which the self-cleavage came out at 0.05.

For GGCAGAGCUCAACACAGUGUGGCAAAGUGGCUCUGGCUAGACUGCC, the self-cleavage amounted to 0.04. With GGCAGAGCUCAACACAGUGUGGGAAAGUGGCUGUGGCUAGACUGCC, the self-cleavage was 1.56. For GGCAGAGCUCAACACAGUGUGGAAAAGUGGCUGUGGCUAGACUGCC, the self-cleavage amounted to 1.27.

On to GGCAGAGCUCAACACAGUGUGGUAAAGUGGCUGUGGCUAGACUGCC, for which the self-cleavage was found to be 1.07. For the variant GGCAGAGCUCAACACAGGGUGGCAAAGUGGCUGAGGCUAGACUGCC, the self-cleavage stood at 0.05.

On to GGCAGAGCUCAACACAGGGUGGCAAAGUGGCUGCGGCUAGACUGCC, for which the self-cleavage was 0.03. For GGCAGAGCUCAACACAGGGUGGCAAAGUGGCUGGGGCUAGACUGCC, the self-cleavage is 0.02. For the variant GGCAGAGCUCAACACAGUGUGGCAAAGUGGCUGUGGCUAGACUGAC, the self-cleavage was 0.79. As to GGCAGAGCUCAACACAGUGUGGCAAAGUGGCUGUGGCUAGACUGGC, the self-cleavage came out at 0.27.

As to GGCAGAGCUCAACACAGUGUGGCAAAGUGGCUGUGGCUAGACUGUC, the self-cleavage was found to be 1.45. To GGCAGAGCUCAACACAGUCUGGCAAAGUGGCUGUGGCUAGACUGCC belongs 0.56; to GGCAGAGCUCAACACAGUUUGGCAAAGUGGCUGUGGCUAGACUGCC, 1.14; to GGCAGAGCUCAACACAGUAUGGCAAAGUGGCUGUGGCUAGACUGCC, 1.13. As to GGCAGAGCUCAACACAGUGUGGCAAUGUGGCUGUGGCUAGACUGCC, the self-cleavage was found to be 1.72. Next, GGCAGAGCUCAACACAGUGUGGCAAGGUGGCUGUGGCUAGACUGCC: 0.65; GGCAGAGCUCAACACAGUGUGGCAACGUGGCUGUGGCUAGACUGCC: 1.39; GGCAGAGCUCAACACAGGGGGGCAAAGUGGCUGUGGCUAGACUGCC: 0.41. Take GGCAGAGCUCAACACAGGGAGGCAAAGUGGCUGUGGCUAGACUGCC: the self-cleavage is 0.41. For the variant GGCAGAGCUCAACACAGGGCGGCAAAGUGGCUGUGGCUAGACUGCC, the self-cleavage is 0.4. For GGCAGAGCUCAACACAGUGUGGCAAAGUGGCUGUGGCUAGGCUGCC, the self-cleavage stood at 0.26. As for GGCAGAGCUCAACACAGUGUGGCAAAGUGGCUGUGGCUAGUCUGCC, the self-cleavage amounted to 0.92.

In the case of GGCAGAGCUCAACACAGUGUGGCAAAGUGGCUGUGGCUAGCCUGCC, the self-cleavage came out at 0.05. On to GGCAGAGCUCAACACAGUGUGGCAAAGUGGCUGCGGCUAGACUGCC, for which the self-cleavage was 0.07. Next, GGCAGAGCUCAACACAGUGUGGCAAAGUGGCUGAGGCUAGACUGCC: 0.07. Take GGCAGAGCUCAACACAGUGUGGCAAAGUGGCUGGGGCUAGACUGCC: the self-cleavage was determined as 0.03. GGCAGAGCUCAACACAGUGUCGCAAAGUGGCUGUGGCUAGACUGCC: the self-cleavage stood at 1.13. To GGCAGAGCUCAACACAGUGUUGCAAAGUGGCUGUGGCUAGACUGCC belongs 2.05; to GGCAGAGCUCAACACAGUGUAGCAAAGUGGCUGUGGCUAGACUGCC, 2.7.

In the case of GGCAGAGCUCAACACAGGGUGGCAAAGUGGCUGUGGCGAGACUGCC, the self-cleavage came out at 0.02. As for GGCAGAGCUCAACACAGGGUGGCAAAGUGGCUGUGGCAAGACUGCC, the self-cleavage is 0.38. For the variant GGCAGAGCUCAACACAGGGUGGCAAAGUGGCUGUGGCCAGACUGCC, the self-cleavage turned out to be 0.16.

Consider GGCAGAGCUCAACACAGUGUGGCAAAGUGGCUGUGGCCAGACUGCC, for which the self-cleavage stood at 0.27. Take GGCAGAGCUCAACACAGUGUGGCAAAGUGGCUGUGGCAAGACUGCC: the self-cleavage amounted to 0.75. To GGCAGAGCUCAACACAGUGUGGCAAAGUGGCUGUGGCGAGACUGCC belongs 0.01.
